From paper PMC10842012 come the findings set out here.

For experiment [1], the target named is HRP29 decoration protein gp48 (Shigella phage HRP29). As to the kind of experiment: cryo-EM structure.
The target of experiment [2] is HRP29 tailspike adapter protein gp44 (in the virion) (Shigella phage HRP29). Description: cryo-EM structure.
The target of experiment [3] is HRP29 tailspike protein gp52 (Shigella phage HRP29). As to the kind of experiment: negative-stain electron microscopy with 2D classes and 3D reconstruction.
Experiment [4] addresses HRP29 portal protein gp35 (Shigella phage HRP29). Description: cryo-EM structure.

As usually defined, the stoichiometry N is the number of molecules, sites or subunits per partner or assembly. Regarding “HRP29 decoration protein gp48 (natural protein)”, the stoichiometry N in experiment [1] turned out to be 2. “HRP29 tailspike adapter protein gp44 (in the virion) (natural protein)” returned a stoichiometry N in experiment [2] of 3. “HRP29 tailspike protein gp52 (natural protein)” displayed a stoichiometry N in experiment [3] of 3. In the case of “HRP29 portal protein gp35 (natural protein)”, in experiment [4], the stoichiometry N turned out to be 12.
